Experiment: yeast display, Sf9 membrane polyspecificity reagent, FACS + sequencing; frameworks hold sequencing errors
How it was run: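 A nanobody's polyreactivity label depends on the gate it was sorted from. Yeast display cells were stained with 10% biotinylated, detergent-solubilized Sf9 membrane reagent for 1 hour at 4 °C, enriched on streptavidin microbeads and sorted by FACS. The low and high (top ~1%) gates were set on anti-HA fluorescence for expression and streptavidin fluorescence for reagent binding.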

| Sequence | polyreactivity (PSR sort gate) |
| --- | --- |
| QVQLEESGAGLVQAGGSLRLSCAASVSIFRQYAMGWYRQAPGKERELFAAINYSGGKTYYADSVKGRFTISRDNAKNTVYLQLNSLKPEDTAVYYCAADSVRHYWWAYYYWGQVTQVTVSS | low polyreactivity |
| QVQLVESGGGLVQAGGSLRLSCAASGSTFEAYAMGWDRQAPGKERELVAAISYSGSSTYYADSVKGRFTISRDNAMNSVYLQMHRLKPEDTALTYCAARASKGRRMGYWGQGTQVTVSS | low polyreactivity |
| QVQLVESGGGLVQAGGSLRLSCAASGIIIWTNVMGWYRQAPGKEREFVAAISRSGGSTYYADSVKGRFTISRDNAKNTVYLQMNSLKPEDTAVYYCAARLSYSVQKFDYWGQGTQVTVSS | high polyreactivity |
| QVQLVESGGGLVQAGGSLRLSCAASGSTFLRNAMGWYRQAPGKERELVATISRTGGTTYYADSVKGRFSISRDNAKTTVYLQMNSLKPEDTAVYYCAAYSKYGQHYDYWGQGTQVTVSS | high polyreactivity |
| QVQLVESGGGLVQAGGSLRLSCAASGRTFWYYTMGWYREAPGKERELVAAINWSGGSTYYADSVKGRFTISRDNAKNTVYLQMNSLKPEDTAVYYCAARRNGYFSAARDYGGQGTQVTVSS | high polyreactivity |
| PVQLQESGGGLVQAGGSLRLSCAASGNIFDADIMGWNRQAPGKESDLVACIADGGSTNYADSVKGRFTISRDNAKNTVYLQMNSLKPEDTAVHYCAAIAYPDIPTCFDYDSDYFFRGQGTQVTVSS | low polyreactivity |
| QVQLVESGGGLVQAGGSLSLSCAASGITFEWYAMGWYRQAPGKERELVAAISTSGGSTYYADSVKGRFTISRDNEKNTVYLQMNSLKPEDTEVYYCNTVSYGYSSKLYDYWGHGTQVTVSS | high polyreactivity |
| QVQLVESGGGLVQAGGSLRLSCAASGFNFGCYCMGWYIQAPGKERELVAAITWSGVRTYYADSVKGRFTISRDNAKNTVYLQMNSLKPEDTAVYYCAASGEGGYLENNEFDYWGQGTQVTVSS | low polyreactivity |
| QGQLVESGGCLVQEGGSLRLSCAASGRIFLYYTMGWYRQAPGKERELVAAITRSGGSTYYADSVKGRFTISRDNAKNTVYLQMNSLQPVDTAVSYCNRAYVRYVPMNYWGQGTLVTVSS | high polyreactivity |
| QVQLVESGGGLVQAGGSLRISCAASGSTLVGKVMGWYRQAPGKERELVADITLSGGSTYYSDSVKGRFTISRDNAKNTVYLQMNSLKPEDTAVYYCNDVFFNYLLEYDYWGQGTQVTVSS | high polyreactivity |
| QVHLVDSGGGLVQAGGSLRLSCAASGFIFWSYAMGWYRQAPGKERELVAAISFRGGSTFYADSVKGRFTISRDNAKNTVYLQMNSLKPEDTAVYYCAVGVYPSYRGPTFSTRRDYWGQGTQVTVSS | low polyreactivity |
| QVQLVESGGGLVQAGGSLRLICAASGIIFVRYVMGWYRQAPGKEMELVAAINWSGGSTYYADSVKGRFTISRDNAKYTVYLQMNSLKPEDTAVYFCCAGSARDDDYWGQGTQVTVSS | high polyreactivity |
| QVQLVESGGGLVQAGCSLRLICAASGSISYHNAKGWYRQAPAKEREWVAANSGDGDSTYYADSVKVRFTISRDNAKHTVYLQMNTLKPEDSAVYYSAAEPTVYFSDFVLFPSDFWGQGTQVTVSS | low polyreactivity |
| QVQLVESGGGLVQAGGSLRLSCAASGFTFRFYVMGWYRQAPGKERELVAAISKRGASTSYADSVKGRFTISRDNAKNTVYLQMNSLKPEDTAVYYCAASAKRGEMGYWGQGTQVTVSS | high polyreactivity |
| QVQLVESGGGLVQAGGSLRLSCAPSGSIFSWYAMGWYRQAPGKERELVAAIDDDDSTNYADSVKGRFTISRDNAKNTVYLQMNSQKPEDTAVYYCNTRSRPYWYIYRPGDYWGQGTQVTVSS | low polyreactivity |
| QVQLVESGGGLVQAGGSLRLSCAASGSIFPGNAMGWYRQAPGKERELVAAISSSGGRTYYADSVKGRFTISRDNAKNTVYLQMNSLKPEDTAVYYCNRLQVYSYYPYYPWYNYWGQGTQVTVSS | high polyreactivity |
| QVQLVESGGGLVQAGGSLRLSCAASGSTFTDNAMGWYRQAPGKETELVAAINGSGDITYYADSVKGRFTISRDYAKNTVYLQMKSLKPEDTAVYYCATRTQYKTWYGAYYYWGQGTQVTVSS | low polyreactivity |
| QDQLVESGGVLVQAGGSLRLSCAASGFIFNRYAMGWYRQAPWKERELVAANTRTGSTNYADSVKGRFTISRYNAKYTVYLQMSCLKPEDTAVFYCAAVYLSLGRPYYTFEYWGQGTQVTVSS | high polyreactivity |
| QVRLVESGGGLVQAGGSLRLTCAASGSTFTTYALGWYRQAPGKERELVAAISSGGDTKYADSVKGRFTISRDNAKNTIYLQMNSLIPEDTAVYYCAKRRYYRYYYWGQGTQVTVSS | high polyreactivity |
| QVQLVESGGGLVQAGGSLRLSCAASGRTFAYYAMGWYRQAPGKERELVAAISSGGGSTYYADSVKGRFTISRDNAKNTVYLQMNSLKPEDTAVYYCNKGFEYWGQGTQVTVSS | high polyreactivity |
| QVQVVESGGGLVQAGGSLRLSCAASGSIVSHYAMGWYRQAPGKERELVAGISRRGGRTYYADSVKGRFTISRDNAKNTVYLQMNSLKPEDTAVYYCAALRSSSFGYWGQGTQVTVSS | high polyreactivity |
| QVQLVESGGGLVQAGGSLRLRCAASGSTFDVYAMGWYRQAPGKERELVASISITDGSTYYADSVKGRFTISRDNAKNTVYLQMNSLIPEVTAVYYCAAEYHTLSKYSGYATHVYWGQGTQVTVSS | low polyreactivity |

| Sequence | polyreactivity (PSR sort gate) |
| --- | --- |
| QVQLVESGGGLVQAGGSLRLSCAASGSTFITYAMGWYRQAPGKERELVAAIRVIGGRTYYADSVKGRFTISRDNAKNTVYLQMNSLKPEDTAVYYCAVTGRGWGYDYWGQGTQVTVSS | high polyreactivity |
| QGQLVESGGGLVQAGGSLRLSCAASGSTVPQYAMGWYRQAPGKERELVAVITDSGGSTYYADSVKGRFTISRDNAKNTVYLQMNSLKPEDTAVYYCAARRWSPRSGLGYGYWGQGTQVTVSS | high polyreactivity |
| QGQLVESGGGLVQAGGSLRFSCAASGSTFRSYALGGYRQAPGKEWELVAAISGDGSTNYADSVKGRFTISRDNAKNPVYLQMNSLKPEDTAVYYCAKDPGYPAPYYDYYYWGQGTKVTVSS | low polyreactivity |
| QVQLVESGGGLVQAGGSLRLSCAASGRIYGVYVMGWYRQAPGKERELVAAISWSGSHTYYADSVKGRFTISRDNAKNTVYLQMNSLKPEDTAVYYCKADSYPDYTGPGLDWYDYWGQGTQVTVSS | low polyreactivity |
| QVQLVESGGGLVQAGGSLRLICAASGSTFDYYAKGWYRQATGKERELVASITWGDGSTYYADSVKGRFTISRDNAKNTVYLQRNSLKPEDTAVYYCNDDDTQLESYAPGHGYDYWGQGTQVTVSS | low polyreactivity |
| QVQLVESGGGLVQAGGSLRLSCAASGFTFYKNAMGWYRQAPGKERELVARITGRGGSTYYADSVKGRFTISRDNAKNTVYLQMNSLKPEDTAVYYCAVDGLVWRNRGFDYWGQGTQVTVSS | high polyreactivity |
| QVQLVESGGGLVQAGGSLRLSCAASGRTFVTYAMGWYRQAPGQERELVAAISASGGSTYYADSVKGRFTISRDNAKNTVYLQMNSLKPEDTAVYYCAKTYFLATPYGYWGQGTQVTVSS | low polyreactivity |
| QVQLVESGGGLVQAGVSLRLSCAASGSTFTSYAMGWYRQAPGKERELVAAINDSAGSTYYADSVKGRFTISRDNAKNTAYLQKNSLKPDDTAVYYCAADGYNRQYVTYYYWGQGTQVTVSS | low polyreactivity |
| QVQLVASGGGFVQAGGSLRVSCAASGGTILGNAMGWDRQAPGKERELVATITARVGSTYYADSVKGRFTISRDNAKNTVYLQMNSLKPEDTAVYYCAARKVWGYTYGYPYYYWGQGTQVTVSS | high polyreactivity |
| QVQLVESGGGLVQAGGSLRLSCAASGSIFPSYAMGWYRQAPGKERELVATISGSGTRTYYADSVKGRFTISRDNAKNTFYLQMNSLKPEDTAVYYCARLPPGDMDYWGQGTQVTVSS | low polyreactivity |
| QVQLVESGGGLVQAGGSLRLSCAASGRTFTRYTMGWYRQAAGKERELVAAISYSGGSTYYADSVKGRFTISRDNAKNTVYLQMNSLKPEDTAVYYCAAASVRWPGYDYWGQGTQVTVSS | high polyreactivity |
| QVQLVESGGGLVQAGGSLRLSFAASGRTFGKNAMGWYRQAPGKEREFVAAITSRGGSTYYADSVKGRFTISRDNAKNTVYLQMNSLKPEDTAVYYCNREYKRPSQRTEHYYWGQGTQVTVSS | low polyreactivity |
| QVQLVESGGGIVQAGGSLRLSCAASGFIFHRNAMGWYRQAPGKERELVASITKRGGNTYYADSVKGRFTISRDTAKNTDFLQMTSLNPEDTGVYYCATQLWGWDWKRDYWGQATQVTVSS | high polyreactivity |
| QVQLVESGGGLVQAGGSLRLSCAASGSIFYRNAMGWYRQAPGKERELVAAITWSGVNTYYADSVKGRFTISRDNAKNTVYLQMNSLKPEDTAVYYCAVPSRYWLNRGFDYWGQGSQVTVSS | low polyreactivity |
| QVQLVESGGGLVQAGGSLRLSCAPSGSTFTINVMGWYRQAPGKERELVAAINGGGRTNYADSVKGRFTISRDNAKNTVYLQINSLIPEDTAVYYCAADGLSNVRQMDYWGQGTQVTVSS | low polyreactivity |
| PVQLVESGGGLVQAGGSLRLSCAASGFIFYYNTMGSYRQAPGKERELVAAINSGGSTYYADSVKGRFTISRDNAKNTVYLQMNSLKPEDTAVYYCAKRYAVSSGYYYWGQGTQVTVSS | high polyreactivity |
| QVQLVESGGGLVQAGGSLRLSCAASGFTFERYAMGWYRQAPGKERELVAAIDWRGVNTYYADSVKGRFTISRDNAKNTVYLQMNSLKPEDTAVYYCAATRPATYASYDYWGQGTQLTVSS | high polyreactivity |
| QVQLVESGGGLVQAGGSHRLSCAASGFTFYIYAMGWYRQAPGKERELVAAINIGGGGTYYADSVKGRFTISRDNAKNTVYLLMHSLKPEDTAVYDCAAVYCYDYYCTEYDYWGQGTQVNVSS | low polyreactivity |
| QVQLVESGGGLVQAGGSLRLSCAASGSTFNAYDMGWYRQAPGKERELVAAISTSGDSTYFADSVKGRFTISRDNAKNTVYLQMNSLKPEDTAVYYCARDIYHYGYDYWGQGTQVTVSS | low polyreactivity |
| QVQRVESGGGLVQAGGSLRLSCAASGSTFDRNAMGWYRQAPGKERELVAAIDYSGGSTYYADSVKGRFTISRDNAKNTVYLQMNSLKPEDTAVYYCAARVDGPDYSDGNYWGQGSQVTVSS | low polyreactivity |
| QVQLVESGGGLVQAGGSLRLSCAASGSILYVNAMGWYTQEPGKERELVAAITVSGGSTYYADSVKGRFTISRDNAKNTVYLQMNSLKPEDTAVFYCAAPALGNYFYGYDYCGQGTQVTVSS | low polyreactivity |

Source: the nanobody polyreactivity screen of Harvey et al. (2022)
